Results: the Human Domainome abundance scans (Beltran et al. 2025)
± gives the uncertainty stated by the source.

B1: POU domain, class 2, transcription factor 2, residues 200 to 269; numbered along this chain, P09086 (parent)
chain: LEELEQFARTFKQRRIKLGFTQGDVGLAMGKLYGNDFSQTTISRFEALNLSFKNMCKLKPLLEKWLNDAE
B2: Max-interacting protein 1, residues 70 to 120; numbered along this chain, P50539 (parent)
chain: STHNELEKNRRAHLRLCLERLKVLIPLGPDCTRHTTLGLLNKAKAHIKKLE

Variants of: B1
Assay: abundance fitness (aPCA) (normalised: wild type 0, dead -1); higher = more abundant; growth selection in yeast, the domain comes from the species named
Settings: Homo sapiens

Variant | abundance fitness
E2K | -0.02 ± 0.16
E2A | -0.14 ± 0.092
E2H | -0.366 ± 0.094
E2T | -0.274 ± 0.094
E2V | -0.062 ± 0.046
E2N | 0.259 ± 0.3
E2G | -0.046 ± 0.086
E2C | -0.699 ± 0.28
E2P | -0.689 ± 0.19
E2Q | -0.171 ± 0.17
E2Y | -0.106 ± 0.24
E2D | 0.054 ± 0.097
E2M | 0.173 ± 0.095
E2W | 0.039 ± 0.11
E2R | -0.066 ± 0.13
L1R | -0.169 ± 0.086
L1W | -0.051 ± 0.087
L1F | -0.028 ± 0.13
L1S | -0.027 ± 0.12
L1T | 0.016 ± 0.18
L1I | -0.11 ± 0.46

Variant | abundance fitness
L1C | -0.496 ± 0.34
L1N | 0.008 ± 0.21
L1M | -0.081 ± 0.094
L1D | -0.279 ± 0.19
L1V | -0.061 ± 0.073
L1G | 0.01 ± 0.078
E3M | -0.443 ± 0.18
E3N | -0.107 ± 0.085
E3T | -0.159 ± 0.061
E3V | -0.085 ± 0.054
E3A | -0.123 ± 0.035
E3C | -0.187 ± 0.065
E3G | -0.154 ± 0.041
E3F | -0.208 ± 0.1
E3K | -0.189 ± 0.083
E3I | -0.078 ± 0.086
E3R | -0.162 ± 0.034
E3D | -0.087 ± 0.14
E3P | -0.76 ± 0.071
E3L | -0.137 ± 0.036
E3Q | -0.003 ± 0.061

Variants of: B2
Assay: as above
Settings: Homo sapiens

Variant | abundance fitness
K49M | -0.692 ± 0.13
K49G | -0.458 ± 0.091
K49H | -1.02 ± 0.24
K49W | -0.041 ± 0.1
K49P | -0.638 ± 0.11
K49Y | -0.746 ± 0.24
K49Q | -0.679 ± 0.17
K49F | -0.045 ± 0.19
K49D | -1.07 ± 0.25
K49V | -0.618 ± 0.11
K49C | -0.62 ± 0.14
K49S | -0.278 ± 0.1
K49T | -0.701 ± 0.15
K49N | -0.594 ± 0.25
K49L | -0.386 ± 0.094
K49I | -0.81 ± 0.24
I47A | -0.582 ± 0.1
I47S | -0.653 ± 0.093
I47F | 0.216 ± 0.21
I47Y | -0.137 ± 0.17
I47E | -0.776 ± 0.16
I47R | -0.707 ± 0.087
I47G | -0.539 ± 0.09
I47P | -1.06 ± 0.17
I47N | -0.702 ± 0.18

Variant | abundance fitness
I47K | -0.858 ± 0.14
I47D | -0.761 ± 0.15
I47C | -0.524 ± 0.11
I47V | -0.312 ± 0.096
I47T | -0.61 ± 0.16
I47M | -0.25 ± 0.1
I47L | 0.027 ± 0.09
I47Q | -0.931 ± 0.14
L50E | -0.636 ± 0.12
L50V | -0.616 ± 0.1
L50F | 0.259 ± 0.19
L50Y | -0.351 ± 0.31
L50G | -0.317 ± 0.088
L50R | -0.459 ± 0.1
L50A | -0.572 ± 0.11
L50W | 0.023 ± 0.096
L50P | -0.353 ± 0.2
L50N | -0.617 ± 0.33
L50M | -0.446 ± 0.17
L50D | -0.423 ± 0.17
L50Q | -0.377 ± 0.13
L50K | -0.342 ± 0.19
H46F | -0.456 ± 0.18
H46E | -0.527 ± 0.14
H46A | 0.157 ± 0.11

Variant | abundance fitness
H46K | 0.186 ± 0.13
H46Q | 0.305 ± 0.11
H46V | 0.116 ± 0.097
H46R | -0.055 ± 0.079
H46T | 0.154 ± 0.14
H46D | -0.973 ± 0.18
H46W | 0.216 ± 0.085
H46G | 0.108 ± 0.077
H46I | -0.26 ± 0.24
H46N | -0.394 ± 0.23
H46S | 0.237 ± 0.1
H46P | -0.6 ± 0.16
E51W | -0.059 ± 0.18
E51F | 0.332 ± 0.22
E51A | 0.495 ± 0.15
E51R | 0.452 ± 0.15
E51L | -0.182 ± 0.25
E51C | 0.207 ± 0.21
E51N | 0.504 ± 0.18
E51I | -0.459 ± 0.47
E51P | -0.089 ± 0.34
E51T | 0.462 ± 0.16
E51S | 0.615 ± 0.16
E51Q | -0.198 ± 0.25
E51V | 0.271 ± 0.14

Variant | abundance fitness
E51K | 0.891 ± 0.5
E51Y | 0.374 ± 0.21
E51H | 0.368 ± 0.28
E51M | 0.571 ± 0.46
E51D | -0.197 ± 0.25
E51G | 0.355 ± 0.15
K48T | -0.719 ± 0.15
K48P | -0.643 ± 0.14
K48D | -0.65 ± 0.15
K48L | -0.802 ± 0.14
K48H | -0.74 ± 0.21
K48Q | -0.457 ± 0.22
K48C | -0.311 ± 0.14
K48R | -0.288 ± 0.087
K48N | -0.675 ± 0.4
K48S | -0.648 ± 0.14
K48E | -0.762 ± 0.12
K48Y | 0.026 ± 0.22
K48G | -0.479 ± 0.085
K48I | -0.351 ± 0.23
K48W | -0.31 ± 0.17
K48F | -0.093 ± 0.16
K48V | -0.846 ± 0.096
K48M | -0.65 ± 0.18
A45C | -0.25 ± 0.17

Variant | abundance fitness
A45V | -0.045 ± 0.09
A45F | -0.346 ± 0.15
A45L | -0.097 ± 0.093
A45K | -0.057 ± 0.13
A45P | -0.631 ± 0.14
A45M | -0.276 ± 0.12
A45D | -0.617 ± 0.22
A45W | -0.483 ± 0.11
A45I | 0.043 ± 0.16
A45N | -0.023 ± 0.16
A45Q | 0.085 ± 0.14
A45E | -0.136 ± 0.12
A45S | -0.262 ± 0.12
A45T | -0.027 ± 0.14
A45R | -0.167 ± 0.087
A45H | -0.168 ± 0.18
A45G | -0.447 ± 0.085
A43W | -0.303 ± 0.11
A43T | -0.339 ± 0.11
A43P | -0.53 ± 0.13
A43Q | -0.74 ± 0.2
A43S | -0.652 ± 0.11
A43N | -0.553 ± 0.17
A43V | -0.046 ± 0.086
A43Y | -0.918 ± 0.26
